The values below come from patent WO2018007922A2 (dated 2018).

In this experiment the target is recombinant human TTR F87M/L110M (human, UniProt P02766 21-147). As to the kind of experiment: Biacore SPR, mAb captured on anti-human chip, TTR F87M/L110M as analyte. In general terms: Surface plasmon resonance follows binding to a sensor surface in real time, without labels.

B1: Hu9D5 H4L1 (antibody, V domains shown)
VH: EVQLVESGGGLVQPGGSLRLSCAASGFTFSSYTMSWVRQAPGKGLEWVSEISNSGDTTYYPDTVKGRFTISRDNAKNSLYLQSNLLRAEDTAVYYCARHYYYGGGYGGWFFDVWGQGTTVTVSS
VL: DIVMTQSPLSLPVTPGEPASISCRSSKSLLHSNGNTYLYWFLQKPGQSPQLLIYRVSNLASGVPDRFSGSGSGTDFTLKISRVEAEDVGVYYCMQHLEYPLTFGQGTKLEIK
notes: not tied by words to the tested antibody; also called humanized 9D5 VHv4/VLv1
One may read the Kd as the constant that tells how readily two partners part at equilibrium. As to B1, the dissociation constant (Kd) turned out to be 2.09 nM.
